Reference: patent publication US20240301062A1 (BEIGENE SWITZERLAND, published 2024)
Substitutions are numbered along the chain they refer to. Numbers in names are those of the source. Where “and” joins values, the source holds several entries; their conditions need not be identical. Equal entries are not always repeated. Blank lines part the entries; values can stand above or below the binder they belong to.

What was measured:
human claudin 6 (CLDN6) [1] = molecular target: T1, human claudin 6 (CLDN6) (human, UniProt P56747 1-220); test: FACS, HEK293T/human CLDN6 cells
T1 construct: also called human CLDN6; hCLDN6
T1 sequence: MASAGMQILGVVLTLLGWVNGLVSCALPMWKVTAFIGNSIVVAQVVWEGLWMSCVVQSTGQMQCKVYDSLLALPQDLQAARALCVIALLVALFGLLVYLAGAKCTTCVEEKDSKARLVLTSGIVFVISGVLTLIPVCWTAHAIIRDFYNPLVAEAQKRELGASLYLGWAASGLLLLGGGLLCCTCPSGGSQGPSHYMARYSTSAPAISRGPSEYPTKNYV
Protocol: (§1) For affinity determination, CLDN6 over-expressing HEK293T cells and cancer cell line PA-1 which express high levels of human CLDN6 were used to evaluate the binding activity of BG87P related engineering variants. Live cells were seeded in 96-well plate, and were incubated with a series of dilutions of chBG87P and engineered variants thereof. Goat anti-human IgG was used as second antibody to detect antibody binding to the cell surface. EC50 values for dose-dependent binding to CLDN6 expressing cell lines were determined by fitting the dose-response data to the four-parameter logistic model with GraphPad Prism. Cell binding activity of 1st round of BG87P humanization variants against HEK293T/human CLDN6 were compared to chBG87P and shown in FIG. 1A.
Beginning with the chBG87P antibody and BG87P-Bz0, several additional amino acid changes in the CDR regions of both VH and VL were made to further improve the biophysical properties for therapeutics use in human. The considerations included removing post translational modifications (PTM), improved heat stability (Tm), while maintaining binding activities, the resulted variants are BG87P-m1 (VH SEQ ID NO: 31 and VL SEQ ID NO: 8), BG87P-m2 (VH SEQ ID NO: 32 and VL SEQ ID NO: 8), BG87P-m3 (VH SEQ ID NO: 33 and VL SEQ ID NO: 8), and BG87P-m4 (VH SEQ ID NO: 34 and VL SEQ ID NO: 8) and BG87P-m5 (VH SEQ ID NO: 35 and VL SEQ ID NO: 14), BG87P-m6 (VH SEQ ID NO: 36 and VL SEQ ID NO 14), BG87P-m7 (VH SEQ ID NO: 37 and VL SEQ ID NO: 14), and BG87P-m8 (VH SEQ ID NO: 38 and VL SEQ ID NO: 14). Cell binding activity of chBG87P and BG87P-Bz0 related PTM removal variants against HEK293T/human CLDN6 was compared with chBG87P and BG87-Bz0, respectively ([…]). Cell binding affinity (EC50) and Emax (MFI) was normalized to chBG87P for directly comparison and ranking (Table 7).

human claudin 6 (CLDN6) [2] = molecular target: T1, human claudin 6 (CLDN6); test: FACS, PA-1 cells (endogenous CLDN6)
Protocol: as §1

- EC50 (human claudin 6 (CLDN6) [1]): 2.43 nM
- Emax ratio to BG87P (human claudin 6 (CLDN6) [1]): 0.7 ratio
- Top MFI Mean (human claudin 6 (CLDN6) [1]): 134000 MFI
B6: BG87P-m7 (antibody, V domains shown)
VH: QIQLVQSGAEVKKPGASVKVSCKASGYSFTDYHINWVRQAPGQRLEWMGWIYPGSGYTKYNEKFKGRVTLTVDTSASTAYMELSSLRSEDTAVYFCARSGIYHYVSSYYFDHWGKGTTVTVSS
VL: DIQMTQSPSTLSASVGDRVTITCKASQDVGTAVAWYQQKPGKSPKLLIYWASTRHTGVPSRFSGSGSGTEFTLTISSVQPDDFATYFCQQYSSYTFGGGTKVEIK
notes: PTM removal variant of BG87P-Bz0; constant regions not restated (parent: human IgG1/kappa)

- EC50 (human claudin 6 (CLDN6) [1]): 2.34 nM
- Emax ratio to BG87P (human claudin 6 (CLDN6) [1]): 0.62 ratio
- Top MFI Mean (human claudin 6 (CLDN6) [1]): 118000 MFI
B7: BG87P-m6 (antibody, V domains shown)
VH: B6 VH with G66V, D111Q
VL: B6 VL
notes: as for B6

- EC50 (human claudin 6 (CLDN6) [1]): 2.51 nM
- Emax ratio to BG87P (human claudin 6 (CLDN6) [1]): 1.05 ratio
- Top MFI Mean (human claudin 6 (CLDN6) [1]): 202000 MFI
B11: BG87P-m2 (antibody, V domains shown)
VH: QIQLQQSGPELVKPGASVKISCKASGYSFTDYHINWVKQRPGQGLEWIGWIYPGSGYTKYNEKFKVKATLTVDTSSSTAYMHLTSLTSEDSAVYFCARSGIYHYVSSYYFQHWGQGTTLTVSS
VL: DIVMTQSHTFMSTSVGDRVSITCKASQDVGTAVAWYQQKPGQSPKLLIYWASTRHTGVPDRFTGSGSGTDFTLTISNVQSEDLADYFCQQYSSYTFGGGTKLEIK
notes: PTM removal variant of chBG87P; constant regions not restated (parent: human IgG1/kappa)

- EC50 (human claudin 6 (CLDN6) [1]): 2.32 nM
- Emax ratio to BG87P (human claudin 6 (CLDN6) [1]): 1.18 ratio
- Top MFI Mean (human claudin 6 (CLDN6) [1]): 227000 MFI
B12: BG87P-m3 (antibody, V domains shown)
VH: B11 VH with V66G, Q111D
VL: B11 VL
notes: PTM removal variant of chBG87P (VH V65G); constant regions not restated (parent: human IgG1/kappa)

- EC50 (human claudin 6 (CLDN6) [1]): 11.8 nM
- Emax ratio to BG87P (human claudin 6 (CLDN6) [1]): 0.74 ratio
- Top MFI Mean (human claudin 6 (CLDN6) [1]): 143000 MFI
B13: BG87P-m4 (antibody, V domains shown)
VH: B11 VH with H33A, Q111D
VL: B11 VL
notes: Variant of chBG87P with H33A; constant regions not restated (parent: human IgG1/kappa)

The next lines start with the binder.

B1: BG87P-Bz5 (antibody, V domains shown)
VH: B6 VH with G66V, F95Y
VL: B6 VL
- EC50 (human claudin 6 (CLDN6) [1]): 2.55 nM
- Emax ratio to BG87P (human claudin 6 (CLDN6) [1]): 0.73 ratio
- Top MFI Mean (human claudin 6 (CLDN6) [1]): 141000 MFI

B2: BG87P-Bz2 (antibody, V domains shown)
VH: B6 VH with S28T, G66V
VL: B6 VL
- EC50 (human claudin 6 (CLDN6) [1]): 2.65 nM
- Emax ratio to BG87P (human claudin 6 (CLDN6) [1]): 0.44 ratio
- Top MFI Mean (human claudin 6 (CLDN6) [1]): 84300 MFI

B3: BG87P-23 (antibody, V domains shown)
VH: B6 VH with L70I, V72R, F95Y
VL: B6 VL with S43A, V78L, F87Y
- EC50 (human claudin 6 (CLDN6) [1]): 2.43 nM
- Emax ratio to BG87P (human claudin 6 (CLDN6) [1]): 0.77 ratio
- Top MFI Mean (human claudin 6 (CLDN6) [1]): 148000 MFI
- EC50 (human claudin 6 (CLDN6) [2]): 2.49 nM
- Emax ratio to BG87P (human claudin 6 (CLDN6) [2]): 0.58 ratio
- Top MFI Mean (human claudin 6 (CLDN6) [2]): 72500 MFI

B4: BG87P-Bz4 (antibody, V domains shown)
VH: B6 VH with G66V, V72R
VL: B6 VL
- EC50 (human claudin 6 (CLDN6) [1]): 1.88 nM
- Emax ratio to BG87P (human claudin 6 (CLDN6) [1]): 0.57 ratio
- Top MFI Mean (human claudin 6 (CLDN6) [1]): 110000 MFI

B5: BG87P-Bz3 (antibody, V domains shown)
VH: B6 VH with G66V, L70I
VL: B6 VL
- EC50 (human claudin 6 (CLDN6) [1]): 2.63 nM
- Emax ratio to BG87P (human claudin 6 (CLDN6) [1]): 0.56 ratio
- Top MFI Mean (human claudin 6 (CLDN6) [1]): 107000 MFI

B8: BG87P-27 (antibody, V domains shown)
VH: B6 VH with I2V, V72R
VL: B6 VL with S43A, V78L, F87Y
- EC50 (human claudin 6 (CLDN6) [1]): 2 nM
- Emax ratio to BG87P (human claudin 6 (CLDN6) [1]): 0.68 ratio
- Top MFI Mean (human claudin 6 (CLDN6) [1]): 131000 MFI
- EC50 (human claudin 6 (CLDN6) [2]): 1.68 nM
- Emax ratio to BG87P (human claudin 6 (CLDN6) [2]): 0.53 ratio
- Top MFI Mean (human claudin 6 (CLDN6) [2]): 66700 MFI

B9: BG87P-26 (antibody, V domains shown)
VH: B6 VH with L70I, V72R
VL: B6 VL with S43A, V78L, F87Y
- EC50 (human claudin 6 (CLDN6) [1]): 2.3 nM
- Emax ratio to BG87P (human claudin 6 (CLDN6) [1]): 0.77 ratio
- Top MFI Mean (human claudin 6 (CLDN6) [1]): 148000 MFI
- EC50 (human claudin 6 (CLDN6) [2]): 2.3 nM and 2.52 nM
- Emax ratio to BG87P (human claudin 6 (CLDN6) [2]): 0.54 ratio
- Top MFI Mean (human claudin 6 (CLDN6) [2]): 68000 MFI

B10: BG87P-m1 (antibody, V domains shown)
VH: B11 VH with Q111E
VL: B11 VL
notes: as for B11
- EC50 (human claudin 6 (CLDN6) [1]): 3.56 nM
- Emax ratio to BG87P (human claudin 6 (CLDN6) [1]): 1.08 ratio
- Top MFI Mean (human claudin 6 (CLDN6) [1]): 207000 MFI
